Data on one molecule can be found in patent US20170202908A1 (ASAHI GROUP, published 2017).

This assay has as its target T1, Fc-mUmod, fusion protein of the mouse Umod protein (positions 1-616 of SEQ ID NO: 8) and the Fc domain of … (mouse; human, UniProt Q91X17 25-616).
T1 construct: Secreted from HEK293T cells, purified on protein A and immobilized on a 96-well plate; Positions 1-616 are the cloned range and start at the initiator Met; also called uromodulin; not shown: Fc domain of human IgG1
The experiment in a line: whole bacterial cells on plate-immobilized Fc-mUmod; bound cells counted by 16S rRNA real-time PCR, hIgG background subtracted. The method, then:
Next, the Fc-mUmod protein and hIgG as a control Fc protein were respectively diluted with PBS so as to result in a concentration of 5 μg/ml, and the resultants were applied to a 96-well plate (50 μl per well) and immobilized at 4° C. overnight. Each well was washed three times with 200 μl of PBS. Then, a 1% BSA/PBS solution (200 μl) was applied thereto for blocking at room temperature for 2 hours. Then, the blocking solution was removed. Thereafter, bacterial cells of each test lactic acid bacterium, which had been suspended in PBS so as to result in a concentration of 10⁶ cells/50 μl, were applied thereto (50 μl per well) and incubated at room temperature for 2 hours. Each well was washed five times with 200 μl of PBS and then PBS was completely removed.
DNA was extracted from bacterial cells bound to each plate using NucleoSpin™ Tissue (Takara) in accordance with the provided protocol. Real-time PCR was performed using the extracted DNA as a template and universal primers targeting the 16S rRNA gene (F: 5′-[…]-3′ (SEQ ID NO: 12), R: 5′-[…]-3′ (SEQ ID NO: 13)). The number of bacterial cells bound to Fc-mUmod and the number of bacterial cells bound to hIgG were quantitatively determined in accordance with the protocol provided with SYBR™ Premix Ex Taq™ II (Tli RNaseH Plus) (Takara).

T1 sequence (Q91X17 25-616): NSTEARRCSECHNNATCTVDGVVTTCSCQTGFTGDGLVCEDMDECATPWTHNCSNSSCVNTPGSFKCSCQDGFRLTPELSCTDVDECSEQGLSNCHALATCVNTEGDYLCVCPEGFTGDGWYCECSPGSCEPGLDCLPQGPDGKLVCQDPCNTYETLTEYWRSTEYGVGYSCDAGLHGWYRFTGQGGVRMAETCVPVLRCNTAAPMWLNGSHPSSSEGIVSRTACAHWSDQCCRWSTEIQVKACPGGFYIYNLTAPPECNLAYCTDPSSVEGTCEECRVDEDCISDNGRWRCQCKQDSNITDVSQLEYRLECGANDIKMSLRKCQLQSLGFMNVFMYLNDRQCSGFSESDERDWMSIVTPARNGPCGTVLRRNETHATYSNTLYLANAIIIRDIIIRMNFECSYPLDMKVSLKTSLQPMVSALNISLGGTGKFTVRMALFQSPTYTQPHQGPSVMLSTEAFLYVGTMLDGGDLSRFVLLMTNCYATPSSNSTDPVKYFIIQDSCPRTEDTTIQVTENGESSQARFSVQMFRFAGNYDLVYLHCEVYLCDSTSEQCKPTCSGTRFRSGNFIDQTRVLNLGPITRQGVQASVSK

B1: S-layer protein A (SlpA protein) of the Lactobacillus acidophilus strain L-92 (other)
chain: AVSTVSAATTINASSSAINTNTNAKYDVDVTPSVSAVAANTANNTPAIAGNLTGTISASYNGKTYTANLKADTENATITAAGSTTAVKPAELAAGVAYTVTVNDVSFNFGSENAGKTVTLGSANSNVKFTGTNSDNQTETNVSTLKVKLDQNGVASLTNVSIANVYAINTTDNSNVNFYDVTSGATVTNGAVSVNADNQGQVNVANVVAAINSKYFAAQYADKKLNTRTANTEDAIKAALKDQKIDVNSVGYFKAPHTFTVNVKATSNTNGKSATLPVVVTVPNVAEPTVASVSKRIMHNAYYYDKDAKRVGTDSVKRYNSVSVLPNTTTINGKTYYQVVENGKAVDKYINAANIDGTKRTLKHNAYVYASSKKRANKVVLKKGEVVTTYGASYTFKNGQKYYKIGDNTDKTYVKVANFR
notes: In the assays SlpA stood on the surface of whole L-92 bacterial cells, not as an isolated protein; also called surface layer protein (SlpA)
As for B1, the binding result is listed as “binds”.
